Article doi:10.1101/2020.09.18.291195 (bioRxiv, 2020)

Key:
[1] = target: human LI-cadherin EC1-5 (human); assay: AUC
[2] = target: the molecule itself; assay: AUC

human LI-cadherin EC1-5 (domain or fragment), sequence (Q12864 25-782): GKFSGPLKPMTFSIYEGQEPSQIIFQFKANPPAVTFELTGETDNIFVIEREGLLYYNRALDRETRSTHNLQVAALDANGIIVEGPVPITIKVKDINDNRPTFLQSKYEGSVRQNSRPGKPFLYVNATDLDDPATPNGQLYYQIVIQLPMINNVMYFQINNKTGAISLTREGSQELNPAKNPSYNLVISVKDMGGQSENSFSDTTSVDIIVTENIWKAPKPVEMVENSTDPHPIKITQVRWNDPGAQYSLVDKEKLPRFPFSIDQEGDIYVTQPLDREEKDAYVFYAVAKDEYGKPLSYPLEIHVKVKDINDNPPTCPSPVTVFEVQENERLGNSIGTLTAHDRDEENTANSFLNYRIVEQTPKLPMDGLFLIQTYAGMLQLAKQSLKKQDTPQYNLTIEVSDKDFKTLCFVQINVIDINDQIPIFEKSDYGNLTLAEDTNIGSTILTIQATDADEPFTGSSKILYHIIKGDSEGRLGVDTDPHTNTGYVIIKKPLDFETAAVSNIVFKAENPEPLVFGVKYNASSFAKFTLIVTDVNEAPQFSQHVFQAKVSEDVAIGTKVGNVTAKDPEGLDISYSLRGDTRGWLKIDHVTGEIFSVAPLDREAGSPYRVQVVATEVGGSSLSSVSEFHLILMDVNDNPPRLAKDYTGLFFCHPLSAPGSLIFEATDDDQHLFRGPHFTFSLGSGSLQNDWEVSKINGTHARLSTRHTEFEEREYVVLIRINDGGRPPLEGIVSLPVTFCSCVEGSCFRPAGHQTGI

Kd [1]	stoichiometry N [1]	Molecule	Kd [2]	stoichiometry N [2]
22.8 µM	2	human LI-cadherin EC1-5 (domain or fragment)	–	–
–	–	human LI-cadherin EC1-2 (domain or fragment) GPLKPMTFSIYEGQEPSQIIFQFKANPPAVTFELTGETDNIFVIEREGLLYYNRALDRETRSTHNLQVAALDANGIIVEGPVPITIKVKDINDNRPTFLQSKYEGSVRQNSRPGKPFLYVNATDLDDPATPNGQLYYQIVIQLPMINNVMYFQINNKTGAISLTREGSQELNPAKNPSYNLVISVKDMGGQSENSFSDTTSVDIIVTE	75 µM	2
–	–	human LI-cadherin EC1-4 (domain or fragment, N-glycans (four partial N-glycans modelled in chain A and two in chain B of the crystal structure)) QEGKFSGPLKPMTFSIYEGQEPSQIIFQFKANPPAVTFELTGETDNIFVIEREGLLYYNRALDRETRSTHNLQVAALDANGIIVEGPVPITIKVKDINDNRPTFLQSKYEGSVRQNSRPGKPFLYVNATDLDDPATPNGQLYYQIVIQLPMINNVMYFQINNKTGAISLTREGSQELNPAKNPSYNLVISVKDMGGQSENSFSDTTSVDIIVTENIWKAPKPVEMVENSTDPHPIKITQVRWNDPGAQYSLVDKEKLPRFPFSIDQEGDIYVTQPLDREEKDAYVFYAVAKDEYGKPLSYPLEIHVKVKDINDNPPTCPSPVTVFEVQENERLGNSIGTLTAHDRDEENTANSFLNYRIVEQTPKLPMDGLFLIQTYAGMLQLAKQSLKKQDTPQYNLTIEVSDKDFKTLCFVQINVID	39.8 µM	2
